Stoichiometry N data for 2 molecules are collected here from article PMC9164268.

Assay [1] deals with T1, surfactant protein D (human), P35247.
T1 chain: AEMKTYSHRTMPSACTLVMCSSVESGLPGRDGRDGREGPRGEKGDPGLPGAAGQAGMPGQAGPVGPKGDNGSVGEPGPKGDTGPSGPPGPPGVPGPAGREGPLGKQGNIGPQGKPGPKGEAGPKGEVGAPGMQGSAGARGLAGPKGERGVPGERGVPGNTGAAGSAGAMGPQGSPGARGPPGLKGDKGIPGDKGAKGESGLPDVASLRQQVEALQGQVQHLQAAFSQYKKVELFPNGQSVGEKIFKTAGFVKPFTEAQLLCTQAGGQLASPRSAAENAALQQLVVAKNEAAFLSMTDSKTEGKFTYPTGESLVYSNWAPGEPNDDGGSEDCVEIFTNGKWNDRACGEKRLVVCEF
The assay is described as follows: SEC; Sephadex G-200 column (1.5 x 12 cm, 20 mL), 0.05 M HNaPO4, 0.15 M NaCl, pH 7; 1.5 mg/mL protein loaded, 12 x 1 mL fractions, isocratic; protein in fractions by Bradford assay and slot blot with anti-SPD and anti-MAA. The settings on record: remark: other sources report otherwise.

For assay [2], the target named is T2, MAA-adducted surfactant protein D (human), P35247.
T2 chain: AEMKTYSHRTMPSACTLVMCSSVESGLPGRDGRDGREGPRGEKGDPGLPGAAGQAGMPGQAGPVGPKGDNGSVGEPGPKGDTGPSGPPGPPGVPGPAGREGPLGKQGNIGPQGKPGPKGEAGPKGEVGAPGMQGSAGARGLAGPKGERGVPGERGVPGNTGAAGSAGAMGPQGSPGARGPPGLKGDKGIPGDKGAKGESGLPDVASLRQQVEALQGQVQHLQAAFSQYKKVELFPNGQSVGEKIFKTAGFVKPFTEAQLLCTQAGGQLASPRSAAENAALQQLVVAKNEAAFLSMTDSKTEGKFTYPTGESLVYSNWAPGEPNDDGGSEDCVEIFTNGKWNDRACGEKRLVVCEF
The description is as above. The note with it: remark: other sources report otherwise.

What is called stoichiometry N is the number of molecules, sites or subunits per partner or assembly.

B1: surfactant protein D, P35247 21-375 (natural protein)
chain: AEMKTYSHRTMPSACTLVMCSSVESGLPGRDGRDGREGPRGEKGDPGLPGAAGQAGMPGQAGPVGPKGDNGSVGEPGPKGDTGPSGPPGPPGVPGPAGREGPLGKQGNIGPQGKPGPKGEAGPKGEVGAPGMQGSAGARGLAGPKGERGVPGERGVPGNTGAAGSAGAMGPQGSPGARGPPGLKGDKGIPGDKGAKGESGLPDVASLRQQVEALQGQVQHLQAAFSQYKKVELFPNGQSVGEKIFKTAGFVKPFTEAQLLCTQAGGQLASPRSAAENAALQQLVVAKNEAAFLSMTDSKTEGKFTYPTGESLVYSNWAPGEPNDDGGSEDCVEIFTNGKWNDRACGEKRLVVCEF
Regarding B1, the stoichiometry N in assay [1] was 3.

B2: MAA-adducted surfactant protein D, P35247 21-375 (natural protein)
chain: AEMKTYSHRTMPSACTLVMCSSVESGLPGRDGRDGREGPRGEKGDPGLPGAAGQAGMPGQAGPVGPKGDNGSVGEPGPKGDTGPSGPPGPPGVPGPAGREGPLGKQGNIGPQGKPGPKGEAGPKGEVGAPGMQGSAGARGLAGPKGERGVPGERGVPGNTGAAGSAGAMGPQGSPGARGPPGLKGDKGIPGDKGAKGESGLPDVASLRQQVEALQGQVQHLQAAFSQYKKVELFPNGQSVGEKIFKTAGFVKPFTEAQLLCTQAGGQLASPRSAAENAALQQLVVAKNEAAFLSMTDSKTEGKFTYPTGESLVYSNWAPGEPNDDGGSEDCVEIFTNGKWNDRACGEKRLVVCEF
modifications: here or on the partner: malondialdehyde-acetaldehyde (MAA) adducts; MAA adduction occurs primarily on lysine residues; positions not given; malondialdehyde-acetaldehyde (MAA) adducts; MAA adduction occurs primarily on lysine residues; positions not given
With B2, in assay [2], the stoichiometry N came out at 3.
